The text below walks through data of patent publication US20030064071A1 (NEW YORK UNIVERSITY, published 2003).

This assay has as its target T1, M-tropic HIV-1MN envelope glycoprotein gp120 (HIV-1 (strain MN), UniProt P05877 32-513).
T1 construct: domain: gp120; also called HIV-1 gp120; HIV-1MN gp120
The experiment in a line: fluorescent bead adhesion assay, flow cytometry.

B1: DC-SIGN (receptor)
chain: MSDSKEPRLQQLGLLEEEQLRGLGFRQTRGYKSLAGCLGHGPLVLQLLSFTLLAGLLVQVSKVPSSISQEQSRQDAIYQNLTQLKAAVGELSEKSKLQEIYQELTQLKAAVGELPEKSKLQEIYQELTRLKAAVGELPEKSKLQEIYQELTWLKAAVGELPEKSKMQEIYQELTRLKAAVGELPEKSKQQEIYQELTRLKAAVGELPEKSKQQEIYQELTRLKAAVGELPEKSKQQEIYQELTQLKAAVERLCHPCPWEWTFFQGNCYFMSNSQRNWHDSITACKEVGAQLVVIKSAEEQNFLQLQSSRSNRFTWMGLSDLNQEGTWQWVDGSPLLPSFKQYWNRGEPNNVGEEDCAEFSGNGWNDDKCNLAKFWICKKSAASCSRDEEQFLSPAPATPNPPPA
notes: also called THP-DC-SIGN (THP-1 transfectant)
Take B1: the binding result is reported as “binds”.
